Laboratory results: the DeepSol protein solubility set

Assay: soluble on expression in E. coli; label from the status in PepcDB or PDB records

Sequence | soluble on expression in E. coli
MKNIFGNKNTKRSKNKDGKALASTASKDVADPPKQGGTKGSKKPKPSRGNDEKGREPETSAQSKKAKKGKPKRDSKAATPALSPGSREMLSDHKKQTVEDDPPLPIATSVAGTVTTTGMPALLPAENATQPLKEVVNSGKKSKGAPNSATATPVSHKSTITEGADKWVGEDVAKNWMDSIDLAEVKKEFEKLQSMKVDVEKECKTWKANSKYNQSEDFPALDSNLLKVEKDYVNISRVEIPLGRNIYIGQVPVKDTEETFWKAVFDKRIVSIDVIVGDEPIEFFPKKAEDYKNYGQMWINNRKVEYVSDDVFRFSIEVLPHGCSNSIICNVTVISNWKVDSVPVKQAIAIKEAFGLNSYLLKAPADDNAMINSQHGAGRAGYFLALAVAVHTIDTKVAEPCIVDIVKSIRSQRPRAVDSFCQYCSLYISLLYFIKKKVTKPAEGDKKSTPTNKYLHKKSVEMTKQFTNILLEANQPSVMGPQ | not soluble
MKNIIPQALLTMPILSTGLQAQEKQPTPNLVFIMADQYRGDAIGCIGKEPVKTPHLDKLASEGINFTNAISSYPVSSPARGMLMTGMYPIGSKVTGNCNSETAPYGVELSQNARCWSDVLKDQGYNMGYIGKWHLDAPYKPYVDTYNNRGKVAWNEWCPPERRHGFDHWIAYGTYDYHLKPMYWNTTAPRDSFYYVNQWGPEYEASKAIEYINGQKDQKQPFALVVSMNPPHTGYELVPDRYKEIYKDLDVEALCKGRPDIPAKGTEMGDYFRNNIRNYYACITGVDENVGRIIEALKQNNLFDNTIVVFTSDHGICMGAHENAGKDIFYEESMRIPMILSWPDQIKPRKSDPLMIAFADLYPTLLSMMGFSKEIPETVQTFDLSNEVLTGKNKKDLVQPYYFVKFDNHATGYRGLRTDRYTYAVHATDGKIDNVILFDRTNDPHEMNNIASQQLKLTHTFNRQLKTWLEKTNDPFAQYIKLKLEHHHHHH | soluble
MKNKVVVVTGVPGVGGTTVTQKAMDILSEEGLNYKMVNFGSAMFDVANEEGLASDRDQMRKLDPETQKRIQKMAGRKIAEMAKESPVAVDTHSTVKTPKGYLPGLPAWVLTELNPDIVIVVETDGDEILMRRLSDESRKRDLETTASIEEHQFMNRAAAMSYGVLTGATVKIVKNKNGLVDNAVEELMSVLR | soluble
MKNLVEEKEAFRFGVSGDIGSFSEEAALLYARKKGLNAHLVHLLDMEGVLNAIENETIDLGILPVVNLLGGLVKPAFQAMGKYSFTPIDEIWHDINQCLLVKTNTQNHKITHIVSHPQGFAQCKKFLRNKFKNAKKIEWIDTAKAAKDLAEGILPPHAAVIASARCAPLYDLKISARNIQDSHLNRTAFILVKKLEHHHHHH | not soluble
MKNNVKNWTTKEVKQSLDKFNNILIKNTFLLQYLKKEFSASSAYCLSMLPEEEDIYEILVNGNIIIDLEFNKHTNETVVINVTDVDEYLKTLTNESGRVFFTLAKEIGKQKNI | not soluble
MKPEDFRTDNKRPLTGEEYLKSLQDGREIYIYGERVKDVTTHPAFRNAAASVAQLYDALHKPSMQDTLCWNTDTGSGGYTHKFFRVAKSADDLRQQRDAIAEWSRLSYGWMGRTPDYKAAFGCALGANPAFYGQFEQNARNWYTRIQETGLYFNHAIVNPPIDRHKPADEVKDVYIKLEKETDAGIIVSGAKVVATNSALTHYNMIGFGSAQVMGENPDFALMFVAPMDAEGVKLISRASYEMVAGATGSPFDYPLSSRFDENDAILVMDKVLIPWENVLIYRDFDRCRRWTMEGGFARMYPLQACVRLAVKLDFITALLKKSLECTGTVEFRGVQADLGEVVAWRNMFWALSDSMCSEATPWVNGAWLPDHAALQTYRVMAPMAYAKIKNIIERNVTSGLIYLPSSARDLNNPQIDQYLAKYVRGSNGMDHVERIKILKLMWDAIGSEFGGRHELYEINYSGSQDEIRLQCLRQAQSSGNMDKMMAMVDRCLSEYDQNGWTVSHLHNNDDINQLDKLLK | not soluble
MKPKLILMSHGRMAEETLASTQMIVGELADAAIVSMTAEDGLSGTQAKLAAILKEAGNVPTLVLADLKGGTPCNVAMMAMGTYPQLRVVAGLNLAMAIEAAVSPVENVDELAAYLTQIGQSAVTTIDLPELTDEEEFEE | soluble
MKPKPSQFKNLERMLGLKTEQLDAVKVTIELKDKILIIENPTVIKMIAQGQEIYSVIGEAKEAQKEEPKVEIKDEDVKFVMEQTGKGEQEVKEALQKANGDIAKAILLLTGQET | soluble
MKPLTYTLVVNGPQYGTQSARNAYLFAKALIEKGHILKSVFFYQDGVLNGSSTHVPANDEFNLLQGWQSLAQSHQVQLETCVAAALRRGVVSEQEASQHGLASHNLAAHFTQAGLGSLAQALLEQDRVVQF | soluble
MKPPFEQALGIIRQLKRHGYEAYFVGGAVRDLLIGRPIGDVDIATSALPEEVMRLFPKTIDVGSKHGTVVVVHEGTAYEVTTFRTDGDYEDHRRPESVTFVRSLEEDLKRRDFTMNAIAMDERGTIIDPFGGQEAIERRLICTVGAADERFREDALRMMRAVRFVSQLGFALAEDTKSAIVQNAPLMAHISVERMTMEMEKLLAGPFVAEALPLLADTGLFAYLPGLAAKEQLLRSAAAFRWPWLTKREERWALLCRALDVKDIRPFLRAWKLPNKVIDEAGAILAALDDVPRPEAWTNEQLFSAGLERALSVEAVRAALCGAPSEPHHEELRRRFAALPIKTKGELAVNGKDVIRWAGKPAGPWVKETLDAIWRAVVSSEVENEKERIYAWLMERNRTHEKNC | not soluble
MKPSMEKVLLQIALDLSSNLSSDLHYQRLINSIHQVFPCDASALFILDNDHCLKPVAVKGLSQAVLGRCFPPQVHPRLEAILQSKHPVRFESNSDLPDPFDGLLLVDENINIEVHDCLGCSLYVDDTLVGVLTLDALEVGAFKKIDDITIETFAALAAATLHNKALIKTLQDSNQQQKSINQTLI | not soluble
MKPYLMGNNPCGADATLFAFAASLLSPVFETPIRAAAESHPNLIAYMARMRTRYYPDFQGSGVFAPALEHHHHHH | not soluble
MKQASAIPQPKTYGPLKNLPHLEKEQLSQSLWRIADELGPIFRFDFPGVSSVFVSGHNLVAEVCDEKRFDKNLGKGLQKVREFGGDGLFTSWTHEPNWQKAHRILLPSFSQKAMKGYHSMMLDIATQLIQKWSRLNPNEEIDVADDMTRLTLDTIGLCGFNYRFNSFYRDSQHPFITSMLRALKEAMNQSKRLGLQDKMMVKTKLQFQKDIEVMNSLVDRMIAERKANPDENIKDLLSLMLYAKDPVTGETLDDENIRYQIITFLIAGHETTSGLLSFAIYCLLTHPEKLKKAQEEADRVLTDDTPEYKQIQQLKYIRMVLNETLRLYPTAPAFSLYAKEDTVLGGEYPISKGQPVTVLIPKLHRDQNAWGPDAEDFRPERFEDPSSIPHHAYKPFGNGQRACIGMQFALQEATMVLGLVLKHFELINHTGYELKIKEALTIKPDDFKITVKPRKTAAINVQRKEQADIKAETKPKETKPKHGTPLLVLFGSNLGTAEGIAGELAAQGRQMGFTAETAPLDDYIGKLPEEGAVVIVTASYNGAPPDNAAGFVEWLKELEEGQLKGVSYAVFGCGNRSWASTYQRIPRLIDDMMKAKGASRLTAIGEGDAADDFESHRESWENRFWKETMDAFDINEIAQKEDRPSLSITFLSEATETPVAKAYGAFEGIVLENRELQTAASTRSTRHIELEIPAGKTYKEGDHIGILPKNSRELVQRVLSRFGLQSNHVIKVSGSAHMAHLPMDRPIKVVDLLSSYVELQEPASRLQLRELASYTVCPPHQKELEQLVSDDGIYKEQVLAKRLTMLDFLEDYPACEMPFERFLALLPSLKPRYYSISSSPKVHANIVSMTVGVVKASAWSGRGEYRGVASNYLAELNTGDAAACFIRTPQSGFQMPNDPETPMIMVGPGTGIAPFRGFIQARSVLKKEGSTLGEALLYFGCRRPDHDDLYREELDQAEQDGLVTIRRCYSRVENEPKGYVQHLLKQDTQKLMTLIEKGAHIYVCGDGSQMAPDVERTLRLAYEAEKAASQEESAVWLQKLQDQRRYVKDVW | soluble
MKQEETLTKVKVAEVTHSIFYAPLYVAESKGFFKEEGLDVDVNTTWGGDKTMTSLLSNGSDIALVGSETSIYVEAQGAKDPVINFAQLTQTDGTFLVAREDVEHFDWDQLKGKTFLGQRKGGMPQMVGEYVLNKHKIDPHKDIDLIQNIDFANIANAFASGTGEYVQLFEPQLLSLRKKASAISWLHSEKNQERFLIRLLWRNKAILEHHHHHH | not soluble
